Patent publication US20070092518A1 (published 2007)
Residue numbers refer to the chain shown, from its start.

B1: SEQ ID NO 166 (Fab, V domains shown)
VH: EVQLVESGGGLVQPGGSLRLSCAASQFIFSNHYMNWVRQAPGKGLEWIGEIRSKSINSATSYAESVKGRFIISRDGNKTDLYLEMNSLKTEDTAEYYCARNYYGSTYDYWGQGTLVTVS
VL: EIVLTQSPDFQSVTPKEKVTITCRASQFVGSSIHWYQQKPDQSPKLLIKYASESMSGVPSRFSGSGSGTDFTFTISSLEAEDAATYYCQQSHSWPFTFGPGTKVDIK
notes: Fab, E. coli lysate
B2: SEQ ID NO 167 (Fab, V domains shown)
VH: B1 VH with I28T, Y33W, I56S, N57Y, S58G, S61H, G76D, Y82T
VL: B1 VL
notes: Fab, E. coli lysate
B3: SEQ ID NO 168 (Fab, V domains shown)
VH: B1 VH with V5T, F27S, I28T, Y33W, S58G, D80S, Y107P
VL: B1 VL
notes: Fab, E. coli lysate
B4: SEQ ID NO 169 (Fab, V domains shown)
VH: B1 VH with V5T, Q26G, S58G, G76D, K78G, T79N, Y82T, R100Q, Y107P
VL: B1 VL
notes: Fab, E. coli lysate
B5: SEQ ID NO 170 (Fab, V domains shown)
VH: B1 VH with Q26G, F27S, I28T, Y33W, S61H, G76D, K78G, D80S, R100Q
VL: B1 VL
notes: Fab, E. coli lysate
B6: SEQ ID NO 171 (Fab, V domains shown)
VH: B1 VH with F27S, I28T, N57Y, G76D, K78G, T79N, D80S, R100Q, Y107P
VL: B1 VL
notes: Fab, E. coli lysate
B7: SEQ ID NO 172 (Fab, V domains shown)
VH: EVQLTESGGGLVQPGGSLRLSCAASGFTFSNHWMNWVRQAPGKGLEWIGEIRSKSIYGATHYAESVKGRFIISRDGNKNDLTLEMNSLKTEDTAEYYCAQNYYGSTPDYWGQGTLVTVS
VL: B1 VL
notes: Fab, E. coli lysate
B8: SEQ ID NO 174 (Fab, V domains shown)
VH: B7 VH with T5V, A23R, F27S, W33Y, I56S, G58S, H61S, G76D, N79T
VL: B1 VL
notes: Fab, E. coli lysate
B9: SEQ ID NO 175 (Fab, V domains shown)
VH: B7 VH with T5V, A23R, T28I, Y57N, G76D, N79T, D80S, P107Y
VL: B1 VL
notes: Fab, E. coli lysate
B10: SEQ ID NO 177 (Fab, V domains shown)
VH: B7 VH with G26Q, F27S, W33Y, I56S, Y57N, H61S, G76D, P107Y
VL: B1 VL
notes: Fab, E. coli lysate
B11: SEQ ID NO 178 (Fab, V domains shown)
VH: B7 VH with T5V, W33Y, G58S, K78G, D80S, Q100R
VL: B1 VL
notes: Fab, E. coli lysate
B12: SEQ ID NO 179 (Fab, V domains shown)
VH: B7 VH with G26Q, I56S, Y57N, G76D, K78G, N79T, D80S, Q100R
VL: B1 VL
notes: Fab, E. coli lysate
B13: SEQ ID NO 180 (Fab, V domains shown)
VH: B1 VH with A23R, Q26G, I56S, S61H, G76D, D80S, Y82T, R100Q, Y107P
VL: B1 VL
notes: Fab, E. coli lysate
B14: SEQ ID NO 181 (Fab, V domains shown)
VH: B7 VH with T5V, I56S, G58S, G76D, D80S
VL: B1 VL
notes: Fab, E. coli lysate
B15: SEQ ID NO 182 (Fab, V domains shown)
VH: B7 VH with W33Y, G58S, K78G, N79T, T82Y
VL: B1 VL
notes: Fab, E. coli lysate
B16: SEQ ID NO 184 (Fab, V domains shown)
VH: B1 VH with S61H, K78G
VL: B1 VL
notes: Fab, E. coli lysate
B17: SEQ ID NO 186 (Fab, V domains shown)
VH: B7 VH with F27S, W33Y, G58S, H61S, G76D, K78G, D80S, Q100R
VL: B1 VL
notes: Fab, E. coli lysate
B18: SEQ ID NO 187 (Fab, V domains shown)
VH: B7 VH with W33Y, I56S, H61S, K78G, N79T, T82Y, P107Y
VL: B1 VL
notes: Fab, E. coli lysate
B19: SEQ ID NO 188 (Fab, V domains shown)
VH: B1 VH with Q26G, N57Y, S58G, G76D, T79N, R100Q
VL: B1 VL
notes: Fab, E. coli lysate
B20: SEQ ID NO 189 (Fab, V domains shown)
VH: B7 VH with G26Q, G58S, G76D, K78G, N79T, D80S, Q100R
VL: B1 VL
notes: Fab, E. coli lysate
B21: SEQ ID NO 190 (Fab, V domains shown)
VH: B1 VH with A23R, Q26G, Y33W, Y82T
VL: B1 VL
notes: Fab, E. coli lysate
B22: SEQ ID NO 71 (Fab, V domains shown)
VH: B7 VH with A23R, F27S, H61S, N79T, D80S, Q100R
VL: B1 VL
notes: Fab, E. coli lysate
B23: TNFα antibody C7 (full-length antibody) (antibody, V domains shown)
VH: B1 VH with Q26G, Y33W, S61H, G76D, T79N, D80S
VL: B1 VL
notes: Variable regions subcloned into a mammalian construct with infliximab constant region (IgG1 kappa)

What follows are binders tested against T1, human tumor necrosis factor-α (rHuTNF-alpha, Biosource) (human, UniProt P01375 77-233) (assay: solid-phase ELISA, Fab lysate on coated rHuTNF-alpha).
T1 construct: Bought recombinant protein coated on ELISA plates; The TNFα of the Biacore assay is not described further; also called TNFα; human TNFα
Summary of the method: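 E. coli lysates expressing His-tagged Fab (pTrcHis2A) were incubated 2 h at RT on wells coated with 1 μg/ml rHuTNF-α and blocked with BSA. Bound Fab was detected with biotinylated anti-human kappa plus penta-His conjugates, then streptavidin-POD and TMB. Absorbance was read at 450 nm.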

T1 sequence (P01375 77-233 limits assumed): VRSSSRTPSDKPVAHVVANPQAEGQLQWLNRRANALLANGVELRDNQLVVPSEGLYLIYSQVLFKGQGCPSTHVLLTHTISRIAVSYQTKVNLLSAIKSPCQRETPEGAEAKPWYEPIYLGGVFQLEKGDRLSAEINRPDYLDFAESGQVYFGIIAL

Row | Binder | binding result
1 | B1 | binds
2 | B2 | binds
3 | B3 | binds
4 | B4 | binds
5 | B5 | binds
6 | B6 | binds
7 | B7 | binds
8 | B8 | binds
9 | B9 | binds
10 | B10 | binds
11 | B11 | binds
12 | B12 | binds
13 | B13 | binds
14 | B14 | binds
15 | B15 | binds
16 | B16 | binds
17 | B17 | binds
18 | B18 | binds
19 | B19 | binds
20 | B20 | binds
21 | B21 | binds
22 | B22 | binds

These binders were tested against T1, human tumor necrosis factor-α … (assay: Biacore, against infliximab).

Row | Binder | fold higher binding affinity than infliximab [fold]
23 | B23 | > 2

What follows are binders tested against T1, human tumor necrosis factor-α … (assay: Biacore).

Row | Binder | Kd [nM]
24 | B23 | 0.07
